Test results as given in PMC13397619.

B1: NLV3 TCR beta chain (CDR3β only) (parent)
chain: ASSPTGGSPSPLH
partner: NLCPMVATV
B2: NLV2 TCR alpha chain (CDR3α only) (parent)
chain: AGPMKTSYDKVI
B3: NLV3 TCR beta chain (CDR3β only) (parent)
chain: ASSPTGGSPSPLH
partner: MLVPMVATV

Variants of: B1
Test: T-Switch: Jurkat TCRβ−/− cells expressing a CDR3 saturation-mutagenesis library, stained with two peptide-HLA-A*02:01 tetramers (original and novel peptide) plus anti-CD3, FACS-sorted into four gates, gDNA sequenced
Conditions: with HLA-A*02:01 with peptide … (NLV 2-1, the novel peptide), tetramers 1 µg/mL, 30 min on ice, SP, DP and SW gates expanded about 10 days between rounds ('two to three rounds of selection' in the Methods), gate SW: higher = more of the variant in the gate that binds the novel peptide and not the original one = switched binding. Fold enrichment of the CDR3 variant in one FACS gate of a two-tetramer stain, unresolved parent, parent is a CDR3 fragment, scale: fold enrichment, numbering: sequential-on-construct, sequence starts at 1

Row | Variant | enrichment
1 | […] (CDR3 as printed); S8I derived by comparing it with the table's wild-type CDR3 ASSPTGGSPSPLH | 0

Variants of: B2
Test: as above
Conditions: with both tetramers (double-negative gate, binds neither): HLA-A*02:01 with … and with …, tetramers 1 µg/mL, 30 min on ice, SP, DP and SW gates expanded about 10 days between rounds ('two to three rounds of selection' in the Methods), gate DN: OPPOSITE: higher = more of the variant in the gate that binds neither peptide = LESS binding (or no expression; inferred). Fold enrichment of the CDR3 variant in one FACS gate of a two-tetram, unresolved parent, parent is a CDR3 fragment, scale: fold enrichment, numbering: sequential-on-construct, sequence starts at 1

Row | Variant | enrichment
2 | […] (CDR3 as printed); K5Q derived by comparing it with the table's wild-type CDR3 AGPMKTSYDKVI | 0.51
3 | […] (CDR3 as printed); P3H derived by comparing it with the table's wild-type CDR3 AGPMKTSYDKVI | 0.96
4 | […] (CDR3 as printed); G2H derived by comparing it with the table's wild-type CDR3 AGPMKTSYDKVI | 0.822
5 | […] (CDR3 as printed); K5C derived by comparing it with the table's wild-type CDR3 AGPMKTSYDKVI | 1.03
6 | […] (CDR3 as printed); M4F derived by comparing it with the table's wild-type CDR3 AGPMKTSYDKVI | 1.34
7 | […] (CDR3 as printed); P3I derived by comparing it with the table's wild-type CDR3 AGPMKTSYDKVI | 1.09

Same assay, conditions: with both tetramers (double-positive gate): HLA-A*02:01 with … and with …, tetramers 1 µg/mL, 30 min on ice, SP, DP and SW gates expanded about 10 days between rounds ('two to three rounds of selection' in the Methods), gate DP: higher = more of the variant in the gate that binds both peptides. Fold enrichment of the CDR3 variant in one FACS gate of a two-tetramer stain. SP/DP/SW gates were expanded and re-sorted bef, unresolved parent, parent is a CDR3 fragment, scale: fold enrichment, numbering: sequential-on-construct, sequence starts at 1

Row | Variant | enrichment
8 | […] (CDR3 as printed); K5Q derived by comparing it with the table's wild-type CDR3 AGPMKTSYDKVI | 0
9 | […] (CDR3 as printed); P3H derived by comparing it with the table's wild-type CDR3 AGPMKTSYDKVI | 0
10 | […] (CDR3 as printed); G2H derived by comparing it with the table's wild-type CDR3 AGPMKTSYDKVI | 0
11 | […] (CDR3 as printed); K5C derived by comparing it with the table's wild-type CDR3 AGPMKTSYDKVI | 0
12 | […] (CDR3 as printed); M4F derived by comparing it with the table's wild-type CDR3 AGPMKTSYDKVI | 0
13 | […] (CDR3 as printed); P3I derived by comparing it with the table's wild-type CDR3 AGPMKTSYDKVI | 0

Variants of: B3
Test: as above
Conditions: with HLA-A*02:01 with peptide … (NLV 3-1, the original bait), tetramers 1 µg/mL, 30 min on ice, DP and SW gates expanded about 10 days between rounds ('two to three rounds of selection' in the Methods), gate SP: higher = more of the variant in the gate that binds the original peptide and not the novel one = retained original binding. Fold enrichment of the CDR3 variant in one FACS gate of a two-tetra, unresolved parent, parent is a CDR3 fragment, scale: fold enrichment, numbering: sequential-on-construct, sequence …

Row | Variant | enrichment
14 | […] (CDR3 as printed); S3P derived by comparing it with the table's wild-type CDR3 ASSPTGGSPSPLH | 0
15 | […] (CDR3 as printed); P9S derived by comparing it with the table's wild-type CDR3 ASSPTGGSPSPLH | 0.568
16 | […] (CDR3 as printed); S10R derived by comparing it with the table's wild-type CDR3 ASSPTGGSPSPLH | 0
17 | […] (CDR3 as printed); P4E derived by comparing it with the table's wild-type CDR3 ASSPTGGSPSPLH | 3.03
18 | […] (CDR3 as printed); A1G derived by comparing it with the table's wild-type CDR3 ASSPTGGSPSPLH | 5.7
19 | […] (CDR3 as printed); P9C derived by comparing it with the table's wild-type CDR3 ASSPTGGSPSPLH | 0
20 | […] (CDR3 as printed); A1S derived by comparing it with the table's wild-type CDR3 ASSPTGGSPSPLH | 4.29
21 | […] (CDR3 as printed); P11H derived by comparing it with the table's wild-type CDR3 ASSPTGGSPSPLH | 0
22 | […] (CDR3 as printed); S2T derived by comparing it with the table's wild-type CDR3 ASSPTGGSPSPLH | 4.08
23 | […] (CDR3 as printed); G7T derived by comparing it with the table's wild-type CDR3 ASSPTGGSPSPLH | 0
24 | […] (CDR3 as printed); S8K derived by comparing it with the table's wild-type CDR3 ASSPTGGSPSPLH | 0
25 | […] (CDR3 as printed); P9V derived by comparing it with the table's wild-type CDR3 ASSPTGGSPSPLH | 3.5
26 | […] (CDR3 as printed); S10V derived by comparing it with the table's wild-type CDR3 ASSPTGGSPSPLH | 0
27 | […] (CDR3 as printed); H13Y derived by comparing it with the table's wild-type CDR3 ASSPTGGSPSPLH | 6.69
28 | […] (CDR3 as printed); S10I derived by comparing it with the table's wild-type CDR3 ASSPTGGSPSPLH | 0
29 | […] (CDR3 as printed); P11V derived by comparing it with the table's wild-type CDR3 ASSPTGGSPSPLH | 0
30 | […] (CDR3 as printed); S3I derived by comparing it with the table's wild-type CDR3 ASSPTGGSPSPLH | 0
31 | […] (CDR3 as printed); P11A derived by comparing it with the table's wild-type CDR3 ASSPTGGSPSPLH | 7.15
32 | […] (CDR3 as printed); P4L derived by comparing it with the table's wild-type CDR3 ASSPTGGSPSPLH | 0
33 | […] (CDR3 as printed); G6V derived by comparing it with the table's wild-type CDR3 ASSPTGGSPSPLH | 0
34 | […] (CDR3 as printed); H13K derived by comparing it with the table's wild-type CDR3 ASSPTGGSPSPLH | 3.5
35 | […] (CDR3 as printed); S2P derived by comparing it with the table's wild-type CDR3 ASSPTGGSPSPLH | 0
36 | […] (CDR3 as printed); G7C derived by comparing it with the table's wild-type CDR3 ASSPTGGSPSPLH | 0
37 | […] (CDR3 as printed); L12V derived by comparing it with the table's wild-type CDR3 ASSPTGGSPSPLH | 0
38 | […] (CDR3 as printed); S8C derived by comparing it with the table's wild-type CDR3 ASSPTGGSPSPLH | 0
39 | […] (CDR3 as printed); L12K derived by comparing it with the table's wild-type CDR3 ASSPTGGSPSPLH | 0
40 | […] (CDR3 as printed); S2C derived by comparing it with the table's wild-type CDR3 ASSPTGGSPSPLH | 5.16
41 | […] (CDR3 as printed); L12H derived by comparing it with the table's wild-type CDR3 ASSPTGGSPSPLH | 0
42 | […] (CDR3 as printed); S3Q derived by comparing it with the table's wild-type CDR3 ASSPTGGSPSPLH | 0
